Laboratory results: the supplement of paper PMC12636428

What follows are sequences tested on Saccharomyces cerevisiae (assay: transcriptional activation domain activity (GFP:mCherry ratio, weighted mean of sorted bins, harmonized to initial dataset scale) (arbitrary fluorescence ratio units); higher = stronger transcriptional activation). Details: beta-estradiol 1 µM; induction time 4 h.
Procedure, shortened: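 Barcoded protein tiles fused to an estradiol-inducible synthetic transcription factor were integrated at the yeast URA3 locus, in diploids carrying a GFP reporter. Cultures were diluted 1:5 into SC with 1 uM beta-estradiol, held 4 hours at 30 °C, sorted into 8 bins by GFP:mCherry ratio, and barcodes sequenced. Tiles under 50 reads were discarded. Activation activity is the read-weighted mean of bin median fluorescence, averaged across barcodes, then linearly mapped onto the initial dataset scale.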

Row | Sequence | transcriptional activation domain activity
1 | KVNQRKENKNNKNDEDNDDDNDDEEGKEKDKEEEKKDKKKKNKKCKHKKNKNK | 21700
2 | TLVEINGNQIRGSSELMDKDNIYLHLRRIFTCFQIEFLKLTGLPFLLREKLPG | 63400
3 | AAAASSTPCLRRRPAPAPATARSSAARPAGCSCGGRSRRCGGRRTPSPSRRGP | 20300
4 | MVQYIMSSKLLLSCINLLRSSILCTMLYLSFFGNFLLCHMIFGLWFYFMMHHE | 53300
5 | VPLCVAVLLLLAPHPSILHVLLNYHYLTLHAPGYFVVHLLIIYALYFLAFSSL | 34000
6 | DSSEVQRKKRRDSRKSKKESKSSSRRKDRSKDRSGRSKQRESKKKDRRRARSE | < 6570
7 | SPVYLICMGTVLLYVGVIIVMLIERIAYFRPGDGLCVIGLKPVASLSLLCFDL | 37200
8 | CKWLGFILLFVPVILSFLFPFLFYSFFSSFVFFFFFFFFVMAVFLFLQSPRSF | 23300
9 | PEKLFGLMHAAISNFPEWETKVGSWFLLGIWHPRFFKAAKEILPYCRRSCISF | 64500
10 | MPLRLRCNCILFYLLFFPLFFFNSTCDFSILLVIFFYSTFSLDFSSFLLFFFF | 55500
11 | LSFLLSFPLPLIPHVLPSLFPCPLFLPLFPPSLPLSPFPPLPLFPPSPFFPLS | 62300
12 | KVKKEKKEKKHRRHHHRHRDGSDDERSHKRRRRDDDKRGHRSSRSEHRRRSDS | 29800
13 | MNQHYGFLNCDLFFYFFFSSLFLIWPFLLFSFSFTVFPYLFTIMETYFGHIKT | 28700
14 | MCCLVLSLALLGRHGGMNIFFLCFYVGSFVFIFLRVLVVRLLLLLLLCYYQAL | 70200
15 | DGGEAGEGGTEGAGGGAGGEEGQQGKRPEEGKRKERHRPAEEHGKEKNHGRGE | 30700
16 | MRMLLYLLIHFIFMGVWTWLSWFSEVELLMVVLGLLETCFELTDMCGFCIFFV | 69500
17 | KTSNDLKYLFTFVEYHVFVSLIRRSLSQLDENKEKHEQMIKLYDDILKNIECI | 24800
18 | EKAKPAEEPKPAAEPAPAEEKAAEPETQPESKPAEELSSPTEEPAPIEEAKPA | 15800
19 | EASLKAQKDEENESEEEGEGEEKEEGEKKEEEKKEEEKKEEEKKEDLEKLTEK | 33100
20 | MVIQKYMFLYFLFCILIFLCIQDLDQDKYNDSLWCSRPFYCHNLFIIILAFIH | 51800
21 | GMFDGVYTGLGVKLPVDKLERYSAAEIAIMSWRVVYLYYWISFCILILCFILF | 69900

Row | Sequence | transcriptional activation domain activity
22 | IWDLWTFGGLDFWGLGFGIWDLGLGFGDWDFIYPPPLPVSVFFLLFLSFGVCW | 56900
23 | VLYSSLITIFTAFYWNVASTSSVQILALLLPYTHPNIAHASTIRPFLIYALFT | 66700
24 | GGAAAKESESKSSASTSKASISKGKDEQGAGASGGNKKGGGGKATTKRGRKKG | 29400
25 | MGRLLLLICFNTSGRLPFLLPLLLFFFFLLFFLYPPLHIFSFSFSLSPSNVPP | 35200
26 | MCRTLISFSLFVGVFILTSIRFFCLSLFFLSSFIFYFTLLLFFLLFLSGLFDL | 50300
27 | LARFACLTCDHNWLEDLIFGATDAIEEAFFANDITCLVFWLYNTTLWLHLMQC | 51400
28 | AVLEFYEQSTRLVASDALGRHVRIELPPRLLVYVVFFSPSVAVVSRLCSLLAC | 35600
29 | MSEPPRKRAKLACVTCNARRVKCDVTDRQPCTNCITGNVHCETRESKRGKHPR | 20300
30 | QLEGDADLFLVPNFYVLRRISHLATTTLLRQLEAFSIRTPVFGVLLWKSLVAI | 49100
31 | GLAIIRWQRGFRDYDNVTFKRFDYEVGMSILGWAFHYFPFFLMARQLFLHHYL | 52400
32 | MEDAADDGAASTKKAKVSKKRKKDIESDGEQEKPAKTPKTKLKLNNKTPKEAS | 48700
33 | NFFLKDNAPVLQEYLAVFRHLLSFHDPELSSHLDTIGFMPDLYAIPWFLTLFT | 16300
34 | LNILTSVWAVPVVITLIQALLVMRVCMLFCFNLRVTLCLWALLFASATVSVVL | 51200
35 | MVHFLVTLPYFILQCLTWLLRFHFFLPCLTFLLCFHLFFGTSLLLSFSMFSWA | 50300
36 | CFFYSAIWLTTIPHCTGRCVRPCGVHLINLGHVCRNHSRYWGYCICNNKMTPY | 57600
37 | MAAAPAAKACAQCNKAETVSGGSDGEEGSSNLHPCNMCKSVLYCSRDCKKAHG | 8830
38 | GGGTDPRHLHVVSVMLVKGVPFYGYHIGYSYFLKVSLVNPSRMFVALEQLRKP | 30000
39 | MDTTDASRGRSKACTYCNKSKTKCMWAGEPGAGACQRCTRLRRSCILPEKGER | 10200
40 | VLHESCGSPVFLLFSCFILLSLWRIVGRISLSILLVLRSLFCCYFPSLLFWLW | 36900
41 | HFAFESLAQTKHLERICMLSIRFVYVYAPHGEPIQLVVGFLICLLSNSPVSNG | 55200
